Each block holds one binder with its values, some of them ahead of it.
Experiments:
Assay in all cases: SEC
[1] = biological target: TmTsaD K166A (Thermotoga maritima, UniProt Q9WXZ2 1-327, K166A)
[2] = biological target: TmTsaD K213A (Thermotoga maritima, UniProt Q9WXZ2 1-327, K213A)
[3] = biological target: TmTsaD S134A (Thermotoga maritima, UniProt Q9WXZ2 1-327, S134A)
[4] = biological target: TmTsaD D165A (Thermotoga maritima, UniProt Q9WXZ2 1-327, D165A)
[5] = biological target: TmTsaD D182A (Thermotoga maritima, UniProt Q9WXZ2 1-327, D182A)
[6] = biological target: T. maritima TsaD (TmTsaD), wild type (Thermotoga maritima, UniProt Q9WXZ2 1-327)
Sequence of T. maritima TsaD (TmTsaD), wild type (Q9WXZ2 whole entry): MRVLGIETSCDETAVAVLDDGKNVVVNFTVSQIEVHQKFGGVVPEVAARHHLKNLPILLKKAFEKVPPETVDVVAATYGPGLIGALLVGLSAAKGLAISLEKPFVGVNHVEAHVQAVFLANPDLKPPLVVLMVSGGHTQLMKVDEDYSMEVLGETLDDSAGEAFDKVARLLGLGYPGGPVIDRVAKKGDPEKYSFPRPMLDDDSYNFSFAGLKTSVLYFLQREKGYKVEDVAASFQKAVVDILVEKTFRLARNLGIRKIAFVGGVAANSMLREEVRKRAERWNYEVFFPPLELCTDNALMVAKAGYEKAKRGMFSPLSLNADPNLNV

Sequence of TmTsaD D182A (Q9WXZ2 whole entry D182A): as the sequence (Q9WXZ2 whole entry) above, with D182A counted along it
Sequence of TmTsaD S134A (Q9WXZ2 whole entry S134A): as the sequence (Q9WXZ2 whole entry) above, with S134A counted along it
Sequence of TmTsaD K213A (Q9WXZ2 whole entry K213A): as the sequence (Q9WXZ2 whole entry) above, with K213A counted along it
Sequence of TmTsaD D165A (Q9WXZ2 whole entry D165A): as the sequence (Q9WXZ2 whole entry) above, with D165A counted along it
Sequence of TmTsaD K166A (Q9WXZ2 whole entry K166A): as the sequence (Q9WXZ2 whole entry) above, with K166A counted along it

binding result [1]: binds | binding result [2]: binds | binding result [3]: binds | binding result [4]: binds | binding result [5]: binds
B1: T. maritima TsaB (TmTsaB), wild type (natural protein, Thermotoga maritima)
chain: MNVLALDTSQRIRIGLRKGEDLFEISYTGEKKHAEILPVVVKKLLDELDLKVKDLDVVGVGIGPGGLTGLRVGIATVVGLVSPYDIPVAPLNSFEMTAKSCPADGVVLVARRARKGYHYCAVYLKDKGLNPLKEPSVVSDEELEEITKEFSPKIVLKDDLLISPAVLVEESERLFREKKTIHYYEIEPLYLQKSIAELNWEKKKRG

binding result [6]: binds
B2: TmTsaB deletion mutant lacking the C-terminal helix and tail Leu189-Gly206 (domain or fragment, Thermotoga maritima, UniProt Q9WZX7 1-188, looked up)
chain: MNVLALDTSQRIRIGLRKGEDLFEISYTGEKKHAEILPVVVKKLLDELDLKVKDLDVVGVGIGPGGLTGLRVGIATVVGLVSPYDIPVAPLNSFEMTAKSCPADGVVLVARRARKGYHYCAVYLKDKGLNPLKEPSVVSDEELEEITKEFSPKIVLKDDLLISPAVLVEESERLFREKKTIHYYEIEP

From paper PMC6614819 (Nucleic Acids Research, 2019)
